Measured values reported in the supplement of paper PMC10126150.
± gives the standard deviation of the averaged measurements.

Test system: ATP
Experiment: switch fluorescence ratio, 500 uM ATP over buffer (Cy3 cluster intensity, sum of 5 cycles each) (fold (ratio)); higher = stronger signal-on switching upon ATP binding; sequences stand for … in TCGTCGGCAGCGTCAGATGTGTATAAGAGACAGTTTTTTTTTTTTTTTTTTTTTTTTT…TC
Conditions: aptamer strand: ATP DNA aptamer (quencher-CACCTGGGGGAGTATTGCGGAGGAAGG + anchor), 100 nM annealed; ATP concentration: 500 uM
Outline: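 Per cluster, summed Cy3 intensity from the target cycles was divided by that from the buffer cycles to give the fluorescence ratio, then averaged per switch-domain sequence. Clusters outside 100-1000 RFU were excluded. The Cy3-labelled switching-strand clusters, on a modified Illumina MiSeq flow-cell, were annealed to 100 nM quencher-labelled ATP aptamer and imaged in selection buffer, then after 15 min with 500 uM ATP at 22 °C, for five cycles with NaOH stripping and re-annealing between them.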
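Note: ATP exposure 15 min at 22 °C before imaging.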

Sequence	switch fluorescence ratio
AGCACTGGGA	1.04 ± 0.029
AGCACTTACA	1.35 ± 0.085
AGCAGAAAGT	1 ± 0.04
AGCAGGGGGT	1.05 ± 0.044
AGCAGGTTGT	1.05 ± 0.015
AGCAGTGCGG	1.03 ± 0.024
AGCAGTTCCG	1.02 ± 0.044
AGCATAAGCA	1.15 ± 0.27
AGCATAATAT	1.05 ± 0.012
AGCATGAACT	1.07 ± 0.044
AGCATGGTAG	1.02 ± 0.031
AGCATTGGGT	1.002 ± 0.0015
AGCATTGGTT	1.02 ± 0.035
AGCATTGTCA	1.01 ± 0.013
AGCCACTGGA	1.06 ± 0.059
AGCCCACTCG	1.04 ± 0.05
AGCCCATACG	1.2 ± 0.039
AGCCCGGGCA	0.956 ± 0.015
AGCCGAATTC	1.03 ± 0.06
AGCCGATATT	0.967 ± 0.015
AGCCGCTTCA	0.9803 ± 0.0053
AGCCGGCGGT	1.02 ± 0.019
AGCCGTTGAG	0.9916 ± 0.0061
AGCCTGTTAG	0.9892 ± 0.0087
AGCCTTTATC	1.04 ± 0.011

Sequence	switch fluorescence ratio
AGCGAATGGT	0.951 ± 0.012
AGCGACGGTT	0.982 ± 0.016
AGCGCCAGGG	1.13 ± 0.035
AGCGCCGAGT	0.973 ± 0.045
AGCGCGTCGC	0.955 ± 0.016
AGCGGATTCG	0.969 ± 0.053
AGCGGCCTAA	0.987 ± 0.014
AGCGGGAACG	1.005 ± 0.0013
AGCGGGAGAT	1.01 ± 0.061
AGCGGGAGGG	1.02 ± 0.015
AGCGGGATGC	1.03 ± 0.028
AGCGGGGAGG	1.03 ± 0.035
AGCGGGGGAG	1.01 ± 0.012
AGCGTCTTGC	1.01 ± 0.059
AGCGTTGGTG	1.03 ± 0.031
AGCGTTTAGA	0.989 ± 0.011
AGCGTTTATA	1.018 ± 0.0013
AGCGTTTTTT	0.998 ± 0.026
AGCTAATTTT	1.02 ± 0.013
AGCTACCTTA	1.09 ± 0.05
AGCTAGGTAA	1.01 ± 0.029
AGCTCAATTA	1.02 ± 0.03
AGCTGAAG	0.967 ± 0.013
AGCTGACTAT	1.06 ± 0.11
AGCTGAGTAA	1.036 ± 0.0085
